The results in this text go back to article PMC2697983.

Some results are limits rather than exact numbers.

One data set concerns GST-QKI-5. Put plainly: EMSA. The note with it: EMSA: 20 mM HEPES pH 7.4, 330 mM KCl, 10 mM MgCl2, 0.1 mM EDTA, 0.1 mg/ml heparin, 0.01% IGEPAL CA630, room temperature, 1 h; SELEX: 50 mM Tris-HCl pH 8.0 …. A general note: Mobility shift assays separate free from complexed probe on a gel.
For the substance TGE-wt, the Kd is 300 nM. On the same count and under the same terms, the result for QRE-2:wt reads 121 nM.

Another data set concerns the target T1, His-SLM-2 (UniProt Q9R226).
T1 sequence: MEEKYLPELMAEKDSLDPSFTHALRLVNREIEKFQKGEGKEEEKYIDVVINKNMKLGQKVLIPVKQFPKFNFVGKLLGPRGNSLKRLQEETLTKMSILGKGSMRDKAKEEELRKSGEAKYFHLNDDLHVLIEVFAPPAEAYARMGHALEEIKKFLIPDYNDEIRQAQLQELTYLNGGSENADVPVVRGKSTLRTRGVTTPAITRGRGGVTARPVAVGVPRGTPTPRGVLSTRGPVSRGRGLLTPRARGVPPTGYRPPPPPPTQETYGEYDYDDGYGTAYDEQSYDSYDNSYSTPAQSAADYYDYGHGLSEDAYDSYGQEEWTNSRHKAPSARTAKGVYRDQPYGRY
The data set can be described thus: EMSA. The note with it: EMSA: 20 mM HEPES pH 7.4, 330 mM KCl, 10 mM MgCl2, 0.1 mM EDTA, 0.1 mg/ml heparin, 0.01% IGEPAL CA630, room temperature, 1 h; SELEX: 50 mM Tris-HCl pH 8.0 ….
Take “GGUUCUACCCCAAUUUUCACUAUCCUAUUAACAGUUCC [SRE-4m2]”: the Kd is more than 1000 nM. As for UAAUUUGGAUUUCUUGAGCUUAUGGCU [SRE-7d7], the Kd was more than 1000 nM. Same read-out and setting: the result for GUGGGCGGUUAAUUUGGAUUUCUUGAG [SRE-7d2] reads more than 1000 nM; that for “AUCGUGGUGGGCGGUUAAUUUGGAUUUCUUGAGCUUAUGGCUCGACGCAUGGG [SRE-7m3]”, more than 1000 nM; that for “AUCGUGGUGGGCGGUUAAUUUGGAUUUCUUGAGCUUAUGGCUUUUAAUAUGGG [SRE-7wt]”, 30.3 nM. For the substance GGAUUUCUUGAGCUUAUGGCUUUUAAU [SRE-7d6], the Kd is more than 1000 nM.

As to UUUCUUGAGCUUAUGGCUUUUAAUAUGG [SRE-7d5], the Kd was more than 1000 nM.

Regarding “GGUUCUAUAAAAAUUUUCACUAUCCUACCCCCAGUUCC [SRE-4m3]”, the Kd was more than 1000 nM. Same read-out and setting: for “GGUUCCCCUGGAUUUCUUGAGCUUAUGGCUUUCCCCAUGG [SRE-7d9m1]” the value was more than 1000 nM; for “AUCGUAAUAAACAAUUAAUUUGGAUUUCUUGAGCUUAUGGCUUUUAAUAUGGG [SRE-7m2]”, 14.5 nM.

For the substance GGUUAAUUUGGAUUUCUUGAGCUUAUG [SRE-7d3], the Kd is more than 1000 nM. Still for that read-out and setting: for “GGUUCUAUAAAAAUUUUCACUAUCCUAUUAACAGUUCC [SRE-4wt]” the value was 16.3 nM. “GGUUAAUUUGGAUUUCUUGAGCUUAUGGCUUUU [SRE-7d8]”: the Kd was more than 1000 nM.

Turning to “AUCUUGUUCUCCGCUUAAUUUGGAUUUCUUGAGCUUAUGGCUUUUAAUAUGGG [SRE-7m1]”, the Kd is 45.2 nM.

Take “GGUUCUAUACCCCCUUUCACUAUCCUAUUAACAGUUCC [SRE-4m4]”: the Kd is more than 1000 nM. The same measure, in the same setting: the result for “GGUUCCUUUGGAUUUCUUGAGCUUAUGGCUUUUAAUAUGG [SRE-7d9m2]” reads 400 nM; that for AUCGUGGUGGGCGGUUAAUUUGGAUUU [SRE-7d1], more than 1000 nM.

Regarding “GGUUAAUCUGGAUUUCUUGAGCUUAUGGCUUUUCCUAUGG [SRE-7d9m3]”, the Kd was found to be 400 nM. Regarding “GGUUCUACCCCAAUUUUCACUAUCCUACCCCCAGUUCC [SRE-4m1]”, the Kd is more than 1000 nM. Still for that read-out and setting: for UUUGGAUUUCUUGAGCUUAUGGCUUUU [SRE-7d4] the value was more than 1000 nM.

On to “GGUUAAUUUGGAUUUCUUGAGCUUAUGGCUUUUAAUAUGG [SRE-7d9]”, for which the Kd is 22.3 nM.

For the next data set, the system named is MBP-GLD-1 (C. elegans). The data set can be described thus: EMSA. The note with it: EMSA: 20 mM HEPES pH 7.4, 330 mM KCl, 10 mM MgCl2, 0.1 mM EDTA, 0.1 mg/ml heparin, 0.01% IGEPAL CA630, room temperature, 1 h; SELEX: 50 mM Tris-HCl pH 8.0 ….
On to TGE-wt, for which the Kd is 104 nM.

For orientation: Kd means a measure of binding affinity in units of concentration.
